Data as given in the nanobody polyreactivity screen of Harvey et al. (2022).

Assay: yeast display, Sf9 membrane polyspecificity reagent, FACS + sequencing; frameworks hold sequencing errors
Method in brief: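 Synthetic nanobody libraries on Saccharomyces cerevisiae BJ5465 were galactose-induced for 36–48 hours, stained 1 hour at 4 °C with 10% biotinylated, detergent-solubilized Sf9 membrane reagent and enriched on streptavidin microbeads. FACS then separated cells into low and high (top ~1%) gates by anti-HA (expression) and streptavidin (reagent binding) fluorescence. Genes were colony-PCR amplified, MiSeq 2 × 250 sequenced and CDR-length filtered. A clone's polyreactivity label is that of its gate of origin.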

Sequence | polyreactivity (PSR sort gate)
QVQLVESGGGLVQAGGSLRLSCAASGRTFYYNAMGWYRQAPGKERELVAAITSRGTTYYADSVKGRFTISRDNAKNTVYLQMNSLKPEDTAVYYCAALALYRAQGNLDYWGQGTQVTVSS | high polyreactivity
QVQLVESGGGLVQAGGSLRLSCAASGRTFYYYAMGWNRQAPGKEREFVASITWRGGRTYYADSVKGRFTISRDYAKNTVYLQMNSLKPEDTAVYYCAADGSYAIGGYGYWGQGTQVTVSS | high polyreactivity
QVQLVESGGGLVQAGGSLRLSCAASGRTFYYYAMGWYRQAPGKEREFVAAIRFSGGNTYYADSVKGRFTISRDNAKNTVYLQMNSLKPVDTAVYYCAARRLLYKYWTGGPYDYWGQGTQVTVSS | high polyreactivity
QVQLVESGGGLVQAGGSLRLSCAASGRTFYYYAMGWYRQAPGKERELVAAIRWRGGRTYADSVKGRFTISRDNAKNTVYLQMNSLKQEDTAVYYCNAGFHYPSTYWIYYSGGNYWGQGTQVTVSS | high polyreactivity
QVQLVESGGGLVQAGGSLRLSCAASGRTFYYYAMGWYRQAPGKERELVAAISSRGGRTYYADSVKGRFTISRDNAKNTVYLQMNSLKPEDTAVYYCAKVVAYYDRDSWGQGTQVTVSS | high polyreactivity
QVQLVESGGGLVQAGGSLRLSCAASGRTFYYYAMGWYRQAPGKERELVAAISWGGGRTYYADSVKGRFTISRDNAKNTVYLQMNSLKPEDTAVYYCNAVRTTPSGSLPLAYDYWGQGTQVTVSS | low polyreactivity
QVQLVESGGGLVQAGGSLRLSCAASGRTFYYYAMGWYRQAPGKERELVAAISWRGGSTYYADSVKGRFTISRDNAKNTVYLQMNSLKPEDTAVYYCAVYTTYSRYRGYDYWGQGTQVTVSS | high polyreactivity
QVQLVESGGGLVQAGGSLRLSCAASGRTFYYYAMGWYRQAPGKERELVAGISWSAGSTYYADSVKGRFTISRDNAKNTVYLQMNSLKPEDTAVYYCAARYWQSYRSQVTHSSTLDYWGQGTQVTVSS | low polyreactivity
QVQLVESGGGLVQAGGSLRLSCAASGRTFYYYAMGWYRQAPGKERELVARIRSGGSTNYADSVKGRFTISRDNAKNTVYLQMNSLKPEDTAVYYCNSMGAKGYVKGFDYWGQGTQVTVSS | low polyreactivity
QVQLVESGGGLVQAGGSLRLSCAASGRTFYYYAMGWYRQAPGKERELVATITKSSGSTSYADSVKGRFTISRDNAKNTVYLQMNSLKPEDSAVYSCARRIKWGKFKGWNYPAHNYWGQGTQVTVSS | high polyreactivity
QVQLVESGGGLVQAGGSLRLSCAASGRTFYYYARGWYRQAPGKEREVVASITSGDGTYYADSVQGRFTISRDYAQNTVYLQMNSLKPEATAVYYCAADIFYKFSYYPWYPYRDYYYWGQGTQVTVSS | low polyreactivity
QVQLVESGGGLVQAGGSLRLSCAASGRTFYYYTMGWYRPAPGKERELVAAISSTGNTYYADSVKGRFTISRDNAKNTVYLQMNSLKPEDTAVYYCAALRYVNLLAQAYEYWGQGTQVTVSS | high polyreactivity
QVQLVESGGGLVQAGGSLRLSCAASGRTFYYYTMGWYRQAPGKEREFVAAIRRSGGNTRYADSVKGRFTISRDNAKNTVYLQMNSLKPEDTAVYYCNAGYGYYYGRILQERDYWGQGTQVTVSS | high polyreactivity
QVQLVESGGGLVQAGGSLRLSCAASGRTFYYYVMGWYRQAPGKERELVAAINSGGNTNYADSVKGRFTISRDNAKNTVYLQMNSLKPEDTAVYYCAADHYRSFRYFESSSTHDYWGQGTQVNVSS | low polyreactivity
QVQLVESGGGLVQAGGSLRLSCAASGRTGVNAMGWYRQAPGKERELVAAINNGDSTYYADSVKGRFTISRDNAKKTVYLQMNSLNPEDTAVYYCAAGLDEGDYWQESDYWGQGTQVTVSS | low polyreactivity
QVQLVESGGGLVQAGGSLRLSCAASGRTIASYTMGWYRQAPGKERELVAAISKSGGSTYYADSVKGRFTISRDNAKNTVYLQMNSLKPEDTAVYYCAKRRSGNVRKYDYWGQGTQVTVSS | high polyreactivity
QVQLVESGGGLVQAGGSLRLSCAASGRTIAYNAMGWYRQAPGKERELVAAISWSGGSTYYADSVKGRFTISRDNAKNTVYLQMNSLKPEDTAVYYCAKRFGQYRYPYDYWGQGTQVTVSS | high polyreactivity
QVQLVESGGGLVQAGGSLRLSCAASGRTIDHYAMGWYRQAPGKERELVAAISTTGGSTYYADSVKGRFTISRDNAKNTVYLQMNSLKPEDTAVYYCAARQRYFWYTTNYNYWGQGTQVTVSS | high polyreactivity
QVQLVESGGGLVQAGGSLRLSCAASGRTIDPNAMGWYRQAPGKERELVAAITRTGVRTYYADSVKGRFTISRDNAKNTVYLQMNSLKPEDTAVYYCNRYGARSNDYWGQGNQVTVSS | low polyreactivity
QVQLVESGGGLVQAGGSLRLSCAASGRTIDSNAMGWYRQAPGKERELVAAISSDGGSTYYADSVKGRFTISRDNAKNTVYLQMNSLKPEDTAVYYCNKDDPVDGPLYFRKYDYWGQGTQVTVSS | low polyreactivity
QVQLVESGGGLVQAGGSLRLSCAASGRTIDYNGMGWYRQAPGKERELVAVISTSGGSTFYADSVKGRFTISRDNAKKTVYLQMNSLKPEDTAVYYCAADFIVAYTLHGSYDYWGQGTQVTVSS | low polyreactivity
QVQLVESGGGLVQAGGSLRLSCAASGRTIEGYAMGCYRQAPGKERELVAAISRRGGSTYYADSVKGRFTISRDNAKNTVYLQMNSLKPEDTAVYYCAARDGSTGAVRYYYWGQGTQVTVSS | high polyreactivity
QVQLVESGGGLVQAGGSLRLSCAASGRTIEHSAMGWYRQAPGKERELVAAINSSDGGTYYADSVKGRFTISRDNPKNTVYLQMNSLKPEDTAVYYCAAAEFGSVPGYEMDYWGHGTQVTVSS | low polyreactivity
QVQLVESGGGLVQAGGSLRLSCAASGRTIEQYDMGWYRQAPGKDRELVAAISWRGGGTYYADSVKGRFTISRDNAKNTVYLQMNSLKPEDTAVYYCAKKSHTTDEGYDYWGQGTQVTVSS | low polyreactivity
QVQLVESGGGLVQAGGSLRLSCAASGRTIEWYAMGWYRQAPGKEREFVARISGIGGSTYYADSVKGRFTISRDKAENTVYLQMNSLKPEDTAVYYCAAVSYFGYYYWGQGTQVTVSS | high polyreactivity
QVQLVESGGGLVQAGGSLRLSCAASGRTIEYNAMGWYRQAPGKEREFVAAITYSGGGTYYADSVKGRFTISRDNAKNTVYLQMNSLKPEDTAVYYCARERTRVHKHYYWGQGTQVTVSS | low polyreactivity
QVQLVESGGGLVQAGGSLRLSCAASGRTIGKNAMGWYRQAPGKERELVAAISWRGGSTRYADSVKGRFTISRDNAKNTVYLQMNSLKPEDTAVYYCAVRFLTYWHGSYWYDYWGQGTQVTVSS | high polyreactivity
QVQLVESGGGLVQAGGSLRLSCAASGRTIGPYAMGWYRQAPGKERELVAAISGGGSTNYADSVKGRFTISRDNAKNTVSLQMKSLKPEDTAVYYCNTEYPISGEEEYWGQGTQVTVSS | low polyreactivity
QVQLVESGGGLVQAGGSLRLSCAASGRTIKYYAMGWYRQAPGKERELVAVITYGGSTDYADSVKGRFTISRDNAKNTVYLQLNSLKPEDTAVYYCAAGFGRHYWGYDSWGQGTQVTVSS | low polyreactivity
QVQLVESGGGLVQAGGSLRLSCAASGRTILGYTMGWYRQAPGKESEFVAAITFSGDSTYYADSVKGRFTISRDKAKNTVYLQMNSLKPEDTAVYYCAAAIPRFSAGHYDYWGQGTQVTVSS | high polyreactivity
